Test results reported in doi:10.1101/2025.05.21.655409.

Key:
[1] = target: Xenopus laevis histone H3 labelled with Oregon Green 488 at C110 (Xenopus laevis) (UniProt P84233); experiment: fluorescence polarisation; fluorescence anisotropy; 5 nM OG488-labeled histone, ligase complex titrated; 20 mM Tris-HCl, 10 mM NaCl, 5% glycerol, 1 mM DTT; BSA-coated 96-well plates, 25 °C, 1.5-2.5 h
[2] = target: Xenopus laevis histone H4 V22C labelled with Oregon Green 488 (Xenopus laevis) (UniProt P62799); experiment: as above

Row | Kd [1] | Kd [2] | fold lower affinity than ASB9-CRL [1] | fold lower affinity than NEDD8-ASB9-CRL [1] | fold lower affinity than ASB9-CRL [2] | fold lower affinity than NEDD8-ASB9-CRL [2] | Substance
1 | 78.2 nM | 48.4 nM |  |  |  |  | NEDD8-ASB9-ELOB/C-CUL5-RBX2 (NEDD8-ASB9-CRL) (from UniProt Q96DX5 1-294; Q15370 1-118; Q15369 1-112; Q93034 1-780; Q9UBF6 1-113; Q15843 1-76) (complex)
2 | 187 nM | 79.7 nM |  |  |  |  | ASB9-ELOB/C-CUL5-RBX2 (ASB9-CRL), not neddylated (from UniProt Q96DX5 1-294; Q15370 1-118; Q15369 1-112; Q93034 1-780; Q9UBF6 1-113) (complex)
3 |  |  | 2 fold | 4 fold | 2 fold | 4 fold | CUL5-RBX2 (from UniProt Q93034 1-780; Q9UBF6 1-113) (complex)
